# Measured values reported in patent US10800813 (Bicycle, dated 2020).
# Numbered stars: 1 amine (or outer) side, 2 acyl side, 3 side chain; on linkers, the order of the positions; unused ones are H or OH. Bridge positions count the residues as written; N and C are the ends. Ends that are not written are not given here. TBMB = c1c(C[*:1])cc(C[*:3])cc1C[*:2]
# Biological target: T1, biotinylated human plasma Kallikrein (human, UniProt P03952 20-638, biotinylated)
# T1 construct: also called Biotinylated hPK
# Assay: phage binding assay, signal:background
# Description: (§1) Library transformant colonies, or selection output colonies, were picked and grown as individual cultures in 2TY broth containing selective antibiotic. The picked colonies were DNA-sequenced using a QIAgen PyroMark Q96 DNA sequencer to reveal the amino-acid substitution present in each clone, and were assayed for human plasma Kallikrein binding as follows. The phage-containing supernatant was harvested from the culture and phage were cyclised with tris bromomethyl benzene(TBMB) based on the methods of Heinis et al (Nature Chemical Biology vol. 5 pp 502-507 (2009)). The purified phage from this process were assayed for binding to biotinylated human plasma Kallikrein using a homogeneous plate-based binding assay; assay read-out measured on a BMG Labtech Pherastar FS plate reader. The quantitative binding data from duplicate assay samples was averaged (mean) and expressed as signal:background. […] The assay data was correlated with the peptide sequences.
# Selections against human plasma Kallikrein were performed with this library in order to study the non-WPAR (SEQ ID NO: 18) determinants of Kallikrein binding, and to isolate the optimal WPAR (SEQ ID NO: 18)-containing peptide sequence.
# T1 sequence (P03952 20-638 limits assumed): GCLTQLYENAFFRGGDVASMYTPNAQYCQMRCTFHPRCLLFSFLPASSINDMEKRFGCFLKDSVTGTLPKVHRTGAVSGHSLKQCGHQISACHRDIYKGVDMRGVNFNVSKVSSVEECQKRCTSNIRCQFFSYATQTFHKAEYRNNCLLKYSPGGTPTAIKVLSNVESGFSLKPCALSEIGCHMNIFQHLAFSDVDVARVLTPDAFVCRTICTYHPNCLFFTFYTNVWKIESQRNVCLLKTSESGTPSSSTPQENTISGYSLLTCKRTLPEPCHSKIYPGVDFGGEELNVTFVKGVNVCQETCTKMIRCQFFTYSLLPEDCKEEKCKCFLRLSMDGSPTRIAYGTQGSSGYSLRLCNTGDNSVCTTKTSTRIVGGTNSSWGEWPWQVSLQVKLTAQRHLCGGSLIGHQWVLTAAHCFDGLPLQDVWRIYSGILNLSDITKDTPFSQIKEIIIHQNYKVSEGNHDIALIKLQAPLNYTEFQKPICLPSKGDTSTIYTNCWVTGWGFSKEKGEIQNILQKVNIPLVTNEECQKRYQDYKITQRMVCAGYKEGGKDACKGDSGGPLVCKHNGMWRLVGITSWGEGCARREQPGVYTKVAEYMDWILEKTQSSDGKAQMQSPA
row,Binding assay signal,Binder
1,71,CHWPARCMHQDLC (linker 1-7-13 via TBMB (inferred)) [SEQ ID NO 140]
2,70,CPWPARCTHTDLC (linker 1-7-13 via TBMB (inferred)) [SEQ ID NO 141]
3,70,CAWPARCTHYDLC (linker 1-7-13 via TBMB (inferred)) [SEQ ID NO 142]
4,69,CPWPARCTHQNLC (linker 1-7-13 via TBMB (inferred)) [SEQ ID NO 143]
5,69,CSWPARCTHTELC (linker 1-7-13 via TBMB (inferred)) [SEQ ID NO 144]
6,69,CAWPARCMHDDLC (linker 1-7-13 via TBMB (inferred)) [SEQ ID NO 145]
7,68,CSWPARCLHTELC (linker 1-7-13 via TBMB (inferred)) [SEQ ID NO 146]
8,68,CSWPARCIHQDLC (linker 1-7-13 via TBMB (inferred)) [SEQ ID NO 147]
9,67,CTWPARCTHTDMC (linker 1-7-13 via TBMB (inferred)) [SEQ ID NO 148]
10,66,CAWPARCTHTHLC (linker 1-7-13 via TBMB (inferred)) [SEQ ID NO 149]
11,60,CEWPARCLHTDLC (linker 1-7-13 via TBMB (inferred)) [SEQ ID NO 156]
12,59,CRWPARCTHTDLC (linker 1-7-13 via TBMB) [SEQ ID NO 159]
13,59,CSWPARCTHSDLC (linker 1-7-13 via TBMB) [SEQ ID NO 161]
14,59,CSWPARCLHDDLC (linker 1-7-13 via TBMB) [SEQ ID NO 162]
15,58,CPWPARCLHTDLC (linker 1-7-13 via TBMB) [SEQ ID NO 163]
16,75,CQWPARCMHQDMC (linker 1-7-13 via TBMB (inferred)) [SEQ ID NO 131]
17,73,CQWPARCMHQELC (linker 1-7-13 via TBMB (inferred)) [SEQ ID NO 135]
18,73,CTWPARCLHQDLC (linker 1-7-13 via TBMB (inferred)) [SEQ ID NO 136]
19,66,CAWPARCLHADMC (linker 1-7-13 via TBMB (inferred)) [SEQ ID NO 150]
20,63,CAWPARCLHQDWC (linker 1-7-13 via TBMB (inferred)) [SEQ ID NO 151]
21,63,CDWPARCMHQEFC (linker 1-7-13 via TBMB (inferred)) [SEQ ID NO 152]
22,61,CAWPARCTHQTMC (linker 1-7-13 via TBMB (inferred)) [SEQ ID NO 153]
23,61,CTWPARCLHQHMC (linker 1-7-13 via TBMB (inferred)) [SEQ ID NO 154]
24,61,CSWPARCVHQDMC (linker 1-7-13 via TBMB (inferred)) [SEQ ID NO 155]
25,59,CLWPARCLTTELC (linker 1-7-13 via TBMB (inferred)) [SEQ ID NO 157]
26,59,CSWPARCTHAEMC (linker 1-7-13 via TBMB (inferred)) [SEQ ID NO 158]
27,59,CTWPARCTHQAFC (linker 1-7-13 via TBMB) [SEQ ID NO 160]

# Biological target: T1, biotinylated human plasma Kallikrein
# Assay: phage binding assay
# Description: as §1
# A library was constructed where positions 1, 6, 7, 8, 9 &10 of 06-34-03 were fixed and positions 2, 3, 4 & 5 were randomised (see 'Randomisation of peptide domains—Library construction' in Methods above). Selections against human plasma Kallikrein were performed at a variety of stringencies (see 'Phage selections' in Methods above). All output sequences were identified and analysed for target binding (see 'Randomisation of peptide domains—Assay of binding of individual clones' in Methods above). Table 17 lists each unique sequence, its relative abundance in the selection output (frequency), and a rank number according to target binding strength.
row,Rank (by Kallikrein binding),Binder
1,2,CSWPSRCTHQDLC (linker 1-7-13 via TBMB) [SEQ ID NO 74]
2,4,CSWLARCTHQDLC (linker 1-7-13 via TBMB) [SEQ ID NO 76]
3,5,CSFPYRCTHQDLC (linker 1-7-13 via TBMB) [SEQ ID NO 77]
4,6,CSFPFKCTHQDLC (linker 1-7-13 via TBMB) [SEQ ID NO 78]
5,7,CSWAARCTHQDLC (linker 1-7-13 via TBMB) [SEQ ID NO 79]
6,8,CSHPYRCTHQDLC (linker 1-7-13 via TBMB) [SEQ ID NO 80]
7,9,CSHPFRCTHQDLC (linker 1-7-13 via TBMB) [SEQ ID NO 81]
8,10,CSWPYRCTHQDLC (linker 1-7-13 via TBMB) [SEQ ID NO 82]
9,11,CRFPFKCTHQDLC (linker 1-7-13 via TBMB) [SEQ ID NO 83]
10,14,CSWPFRCTHQDLC (linker 1-7-13 via TBMB) [SEQ ID NO 86]
11,15,CSFPIRCTHQDLC (linker 1-7-13 via TBMB) [SEQ ID NO 87]
12,18,CSYPIRCTHQDLC (linker 1-7-13 via TBMB) [SEQ ID NO 90]
13,19,CSWSARCTHQDLC (linker 1-7-13 via TBMB) [SEQ ID NO 91]
14,21,CSYPFRCTHQDLC (linker 1-7-13 via TBMB) [SEQ ID NO 93]
15,22,CSFPYKCTHQDLC (linker 1-7-13 via TBMB) [SEQ ID NO 94]
16,23,CSFPWRCTHQDLC (linker 1-7-13 via TBMB) [SEQ ID NO 95]
17,24,CSWHARCTHQDLC (linker 1-7-13 via TBMB) [SEQ ID NO 96]
18,26,CSYPYRCTHQDLC (linker 1-7-13 via TBMB) [SEQ ID NO 98]
19,27,CSWWARCTHQDLC (linker 1-7-13 via TBMB) [SEQ ID NO 99]
20,42,CSWQARCTHQDLC (linker 1-7-13 via TBMB) [SEQ ID NO 114]
21,40,CSLFDHCTHQDLC (linker 1-7-13 via TBMB) [SEQ ID NO 112]
22,41,CSHRRWCTHQDLC (linker 1-7-13 via TBMB) [SEQ ID NO 113]
